In PMC3936768, “Transcription factor abundance controlled by an auto-regulatory mechanism involving a transcription start site switch”:

Target: T1, ZNF143 DBD (UniProt P52747 237-440)
T1 sequence: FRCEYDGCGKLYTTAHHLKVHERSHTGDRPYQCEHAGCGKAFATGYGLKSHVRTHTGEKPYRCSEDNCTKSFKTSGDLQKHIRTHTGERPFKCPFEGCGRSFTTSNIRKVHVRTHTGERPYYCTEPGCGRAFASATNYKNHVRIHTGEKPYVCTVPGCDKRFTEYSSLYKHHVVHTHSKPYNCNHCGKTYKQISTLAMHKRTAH
Assay: EMSA; 20 fmol 32P probe; 4% native PAGE in 0.25x TBE; competition: 20 min preincubation at room temperature, 10 uL; buffer as in ref 33 (not given); competitor excess 200-fold (Methods) or 1000-fold (Fig 2E legend)
Settings: protein: recombinant, blunt

B1: SBS/A (dsDNA)
DNA 1: CAGCCCAATGGAAGCTGGGGGCG
DNA 2: CGCCCCCAGCTTCCATTGGGCTG
**Q.** Does B1 bind (label: 5' 32P)?
**A.** no binding

B2: SBS/C (dsDNA)
DNA 1: TTTTACCCAGTGTGCATTATTCTCC
DNA 2: GGAGAATAATGCACACTGGGTAAAA
**Q.** Does B2 bind?
**A.** binds

B3: mut SBS/C- (dsDNA)
DNA 1: GTTTTTAAAACGTGTGCATTATTCTCC
DNA 2: GGAGAATAATGCACACGTTTTAAAAAC
**Q.** Does B3 bind (label: 5' 32P)?
**A.** no binding

B4: SBS/B (dsDNA)
DNA 1: TGTCCTGGTGCATGGTGGTCGGA
DNA 2: TCCGACCACCATGCACCAGGACA
**Q.** Does B4 bind?
**A.** binds

B5: mut SBS/B- (dsDNA)
DNA 1: CGATTACCATGCACCAGGACAGG
DNA 2: CCTGTCCTGGTGCATGGTAATCG
**Q.** Does B5 bind (label: 5' 32P)?
**A.** no binding
